Experimental data published in article PMC11743126, “CK2α-mediated phosphorylation of DUB3 promotes YAP1 stability and oncogenic functions” (Cell Death & Disease, 2025).

Target: T1, His-DUB3 (UniProt Q6R6M4 1-530)
T1 construct: deubiquitinase DUB3 (USP17L2) cloned into pET30a; also called USP17L2; source: E. coli BL21, purified
T1 sequence (looked up): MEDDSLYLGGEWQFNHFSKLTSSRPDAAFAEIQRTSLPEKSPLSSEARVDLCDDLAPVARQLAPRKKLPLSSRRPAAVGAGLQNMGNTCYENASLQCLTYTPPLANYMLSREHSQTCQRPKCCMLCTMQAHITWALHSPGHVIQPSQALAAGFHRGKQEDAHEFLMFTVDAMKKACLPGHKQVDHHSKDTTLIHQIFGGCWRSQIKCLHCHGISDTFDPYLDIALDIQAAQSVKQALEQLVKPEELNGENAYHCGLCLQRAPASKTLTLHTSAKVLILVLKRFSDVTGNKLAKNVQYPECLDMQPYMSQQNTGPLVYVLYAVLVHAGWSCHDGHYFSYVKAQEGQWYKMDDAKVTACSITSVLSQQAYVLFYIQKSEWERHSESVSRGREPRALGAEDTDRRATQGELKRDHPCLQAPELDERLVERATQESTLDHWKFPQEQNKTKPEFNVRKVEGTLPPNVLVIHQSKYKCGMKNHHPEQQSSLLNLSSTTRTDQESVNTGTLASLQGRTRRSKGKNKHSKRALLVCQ
Assay: pull-down; GST or GST-fusion protein on Pierce Glutathione agarose, incubated with purified His-tagged protein at 4 °C for 2 h; four washes; immunoblotting
Conditions: both partners purified

binding result: binds
B1: GST-CK2α (Casein kinase II alpha, catalytic subunit) (enzyme, UniProt P68400 1-391, looked up)
chain: MSGPVPSRARVYTDVNTHRPREYWDYESHVVEWGNQDDYQLVRKLGRGKYSEVFEAINITNNEKVVVKILKPVKKKKIKREIKILENLRGGPNIITLADIVKDPVSRTPALVFEHVNNTDFKQLYQTLTDYDIRFYMYEILKALDYCHSMGIMHRDVKPHNVMIDHEHRKLRLIDWGLAEFYHPGQEYNVRVASRYFKGPELLVDYQMYDYSLDMWSLGCMLASMIFRKEPFFHGHDNYDQLVRIAKVLGTEDLYDYIDKYNIELDPRFNDILGRHSRKRWERFVHSENQHLVSPEALDFLDKLLRYDHQSRLTAREAMEHPYFYTVVKDQARMGSSSMPGGSTPVSSANMMSGISSVPTPSPLGPLAGSPVIAAANPLGMPVPAAAGAQQ
notes: Casein kinase II alpha (CK2α), catalytic subunit of CK2, cloned into pGEX4T-1; source: E. coli BL21, IPTG induced, pulled down on Pierce Glutathione agarose
